This note sets out measurements from paper PMC11617674 (2024).

By Kd is commonly meant the equilibrium constant for the complex coming apart.

For the experiment, the target named is T1, GlnK (Escherichia coli (strain …, UniProt P0AC55,P0AC55,P0AC55)).
T1 chain 1: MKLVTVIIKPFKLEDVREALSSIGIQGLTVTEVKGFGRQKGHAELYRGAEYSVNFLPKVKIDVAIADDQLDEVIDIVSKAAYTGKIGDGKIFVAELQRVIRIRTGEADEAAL
T1 chain 2: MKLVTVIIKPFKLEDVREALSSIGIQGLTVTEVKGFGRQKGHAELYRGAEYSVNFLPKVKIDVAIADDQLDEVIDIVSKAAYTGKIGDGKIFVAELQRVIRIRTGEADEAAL
T1 chain 3: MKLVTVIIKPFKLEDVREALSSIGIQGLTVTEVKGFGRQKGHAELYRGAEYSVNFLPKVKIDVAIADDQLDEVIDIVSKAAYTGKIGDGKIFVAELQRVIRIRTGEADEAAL
The experiment in a line: BLI (His-PII trimer on sensor), ADP.

B1: UmpH (protein)
chain: MTIKNVICDIDGVLMHDNVAVPGAAEFLHGIMDKGLPLVLLTNYPSQTGQDLANRFATAGVDVPDSVFYTSAMATADFLRRQEGKKAYVVGEGALIHELYKAGFTITDVNPDFVIVGETRSYNWDMMHKAAYFVANGARFIATNPDTHGRGFYPACGALCAGIEKISGRKPFYVGKPSPWIIRAALNKMQAHSEETVIVGDNLRTDILAGFQAGLETILVLSGVSSLDDIDSMPFRPSWIYPSVAEIDVI
Turning to B1, the affinity, expressed as Kd, was 7.8 nM. This counts as single-digit nanomolar.
